The text below walks through data of the supplement of paper PMC5998384.

In series [1] the test system is HeLa Kyoto. Briefly: solubility in G1/S (NP-40 vs SDS abundance) (log2 ratio); higher = more soluble. The note with it: cell cycle stage: G1/S.
Series [2] has as its system HeLa Kyoto. The experiment in a line: melting temperature (median over replicates), in situ; higher = more thermally stable.
Series [3] relates to HeLa Kyoto. The experiment in a line: solubility change mitosis vs G1/S (difference of NP-40 vs SDS log2 ratios) (log2 ratio difference); higher = more soluble in mitosis.
Series [4] relates to HeLa Kyoto. The experiment in a line: thermal stability score vs G1/S (z-score of summed log2 fold changes over temperatures); higher = more thermally stable than in G1/S.
Where [5] appears, read: cell cycle stage: early G1 (4.5 h after nocodazole release).
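Throughout, for melting temperature (median over replicates), in situ: HeLa Kyoto cells synchronized by double thymidine or nocodazole block, proteins quantified by TMT10plex mass spectrometry, three independent biological replicates.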
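Throughout, for solubility change mitosis vs G1/S (difference of NP-40 vs SDS log2 ratios): synchronized HeLa Kyoto cells (double thymidine block for G1/S, nocodazole release for mitosis), protein amounts in NP-40 versus SDS lysates quantified by mass spectrometry, three biological replicates.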
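Throughout, for solubility in G1/S (NP-40 vs SDS abundance): HeLa Kyoto cells arrested at G1/S by double thymidine block, proteins quantified by TMT10plex mass spectrometry in mild NP-40 versus SDS extracts, three biological replicates.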
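Throughout, for thermal stability score vs G1/S (z-score of summed log2 fold changes over temperatures): synchronized HeLa Kyoto cells, proteins quantified by TMT10plex mass spectrometry, three biological replicates, mitosis taken 0.5 h after nocodazole release, G1/S directly after double thymidine block.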

For “METLESELTCPICLELFEDPLLLPCAHSLCFNCAHRILVSHCATNESVESITAFQCPTCRHVITLSQRGLDGLKRNVTLQNIIDRFQKASVSGPNSPSETRRERAFDANTMTSAEKVLCQFCDQDPAQDAVKTCVTCEVSYCDECLKATHPNKKPFTGHRLIEPIPDSHIRGLMCLEHEDEKVNMYCVTDDQLICALCKLVGRHRDHQVAALSERYDKLKQNLESNLTNLIKRNTELETLLAKLIQTCQHVEVNASRQEAKLTEECDLLIEIIQQRRQIIGTKIKEGKVMRLRKLAQQIANCKQCIERSASLISQAEHSLKENDHARFLQTAKNITERVSMATASSQVLIPEINLNDTFDTFALDFSREKKLLECLDYLTAPNPPTIREELCTASYDTITVHWTSDDEFSVVSYELQYTIFTGQANVVSLCNSADSWMIVPNIKQNHYTVHGLQSGTKYIFMVKAINQAGSRSSEPGKLKTNSQPFKLDPKSAHRKLKVSHDNLTVERDESSSKKSHTPERFTSQGSYGVAGNVFIDSGRHYWEVVISGSTWYAIGLAYKSAPKHEWIGKNSASWALCRCNNNWVVRHNSKEIPIEPAPHLRRVGILLDYDNGSIAFYDALNSIHLYTFDVAFAQPVCPTFTVWNKCLTIITGLPIPDHLDCTEQLP [MID1]”, the “solubility in G1/S (log2)” value with HeLa Kyoto [1] was -0.197. Also, the melting temperature in the series on HeLa Kyoto [2] (cell cycle stage: G1/S) and with HeLa Kyoto [2] (cell cycle stage: mitosis) was 50.6 °C in each case. In addition, in the series with HeLa Kyoto [3], the “solubility change mitosis (log2)” value was -0.0991. Moreover, the thermal stability score in the series with HeLa Kyoto [4] (setting [5]) was -0.257; with HeLa Kyoto [4] (cell cycle stage: mitosis), -0.0362.

On to “METPSQRRATRSGAQASSTPLSPTRITRLQEKEDLQELNDRLAVYIDRVRSLETENAGLRLRITESEEVVSREVSGIKAAYEAELGDARKTLDSVAKERARLQLELSKVREEFKELKARNTKKEGDLIAAQARLKDLEALLNSKEAALSTALSEKRTLEGELHDLRGQVAKLEAALGEAKKQLQDEMLRRVDAENRLQTMKEELDFQKNIYSEELRETKRRHETRLVEIDNGKQREFESRLADALQELRAQHEDQVEQYKKELEKTYSAKLDNARQSAERNSNLVGAAHEELQQSRIRIDSLSAQLSQLQKQLAAKEAKLRDLEDSLARERDTSRRLLAEKEREMAEMRARMQQQLDEYQELLDIKLALDMEIHAYRKLLEGEEERLRLSPSPTSQRSRGRASSHSSQTQGGGSVTKKRKLESTESRSSFSQHARTSGRVAVEEVDEEGKFVRLRNKSNEDQSMGNWQIKRQNGDDPLLTYRFPPKFTLKAGQVVTIWAAGAGATHSPPTDLVWKAQNTWGCGNSLRTALINSTGEEVAMRKLVRSVTVVEDDEDEDGDDLLHHHHGSHCSSSGDPAEYNLRSRTVLCGTCGQPADKASASGSGAQVGGPISSGSSASSVTVTRSYRSVGGSGGGSFGDNLVTRSYLLGNSSPRTQSPQNCSIM [LMNA]”, for which the “solubility in G1/S (log2)” value in the series on HeLa Kyoto [1] was -1.05. Further, the melting temperature in the series on HeLa Kyoto [2] (cell cycle stage: G1/S) was 54.8 °C; with HeLa Kyoto [2] (cell cycle stage: mitosis) it was 52.9 °C. Besides, the “solubility change mitosis (log2)” value with HeLa Kyoto [3] was 1.64. Also, the thermal stability score in the series with HeLa Kyoto [4] (setting [5]) is -9.6; in the series with HeLa Kyoto [4] (cell cycle stage: mitosis) it was -5.85.

As for “MEVAVEKAVAAAAAASAAASGGPSAAPSGENEAESRQGPDSERGGEAARLNLLDTCAVCHQNIQSRAPKLLPCLHSFCQRCLPAPQRYLMLPAPMLGSAETPPPVPAPGSPVSGSSPFATQVGVIRCPVCSQECAERHIIDNFFVKDTTEVPSSTVEKSNQVCTSCEDNAEANGFCVECVEWLCKTCIRAHQRVKFTKDHTVRQKEEVSPEAVGVTSQRPVFCPFHKKEQLKLYCETCDKLTCRDCQLLEHKEHRYQFIEEAFQNQKVIIDTLITKLMEKTKYIKFTGNQIQNRIIEVNQNQKQVEQDIKVAIFTLMVEINKKGKALLHQLESLAKDHRMKLMQQQQEVAGLSKQLEHVMHFSKWAVSSGSSTALLYSKRLITYRLRHLLRARCDASPVTNNTIQFHCDPSFWAQNIINLGSLVIEDKESQPQMPKQNPVVEQNSQPPSGLSSNQLSKFPTQISLAQLRLQHMQQQVMAQRQQVQRRPAPVGLPNPRMQGPIQQPSISHQQPPPRLINFQNHSPKPNGPVLPPHPQQLRYPPNQNIPRQAIKPNPLQMAFLAQQAIKQWQISSGQGTPSTTNSTSSTPSSPTITSAAGYDGKAFGSPMIDLSSPVGGSYNLPSLPDIDCSSTIMLDNIVRKDTNIDHGQPRPPSNRTVQSPNSSVPSPGLAGPVTMTSVHPPIRSPSASSVGSRGSSGSSSKPAGADSTHKVPVVMLEPIRIKQENSGPPENYDFPVVIVKQESDEESRPQNANYPRSILTSLLLNSSQSSTSEETVLRSDAPDSTGDQPGLHQDNSSNGKSEWLDPSQKSPLHVGETRKEDDPNEDWCAVCQNGGELLCCEKCPKVFHLSCHVPTLTNFPSGEWICTFCRDLSKPEVEYDCDAPSHNSEKKKTEGLVKLTPIDKRKCERLLLFLYCHEMSLAFQDPVPLTVPDYYKIIKNPMDLSTIKKRLQEDYSMYSKPEDFVADFRLIFQNCAEFNEPDSEVANAGIKLENYFEELLKNLYPEKRFPKPEFRNESEDNKFSDDSDDDFVQPRKKRLKSIEERQLLK [TRIM24]”, the “solubility in G1/S (log2)” value in the series on HeLa Kyoto [1] was -0.0643. Moreover, the melting temperature is 48.8 °C with HeLa Kyoto [2] (cell cycle stage: G1/S) and 50.2 °C in the series on HeLa Kyoto [2] (cell cycle stage: mitosis). For the same sequence, in the series with HeLa Kyoto [3], the “solubility change mitosis (log2)” value is -0.117. For the same sequence, the thermal stability score with HeLa Kyoto [4] (setting [5]) amounted to 2.07; in the series on HeLa Kyoto [4] (cell cycle stage: mitosis) it was 4.99.

In the case of “MEVKRLKVTELRSELQRRGLDSRGLKVDLAQRLQEALDAEMLEDEAGGGGAGPGGACKAEPRPVAASGGGPGGDEEEDEEEEEEDEEALLEDEDEEPPPAQALGQAAQPPPEPPEAAAMEAAAEPDASEKPAEATAGSGGVNGGEEQGLGKREEDEPEERSGDETPGSEVPGDKAAEEQGDDQDSEKSKPAGSDGERRGVKRQRDEKDEHGRAYYEFREEAYHSRSKSPLPPEEEAKDEEEDQTLVNLDTYTSDLHFQVSKDRYGGQPLFSEKFPTLWSGARSTYGVTKGKVCFEAKVTQNLPMKEGCTEVSLLRVGWSVDFSRPQLGEDEFSYGFDGRGLKAENGQFEEFGQTFGENDVIGCFANFETEEVELSFSKNGEDLGVAFWISKDSLADRALLPHVLCKNCVVELNFGQKEEPFFPPPEEFVFIHAVPVEERVRTAVPPKTIEECEVILMVGLPGSGKTQWALKYAKENPEKRYNVLGAETVLNQMRMKGLEEPEMDPKSRDLLVQQASQCLSKLVQIASRTKRNFILDQCNVYNSGQRRKLLLFKTFSRKVVVVVPNEEDWKKRLELRKEVEGDDVPESIMLEMKANFSLPEKCDYMDEVTYGELEKEEAQPIVTKYKEEARKLLPPSEKRTNRRNNRNKRNRQNRSRGQGYVGGQRRGYDNRAYGQQYWGQPGNRGGYRNFYDRYRGDYDRFYGRDYEYNRYRDYYRQYNRDWQSYYYHHPQDRDRYYRNYYGYQGYR [HNRNPUL2]”, in the series on HeLa Kyoto [1], the “solubility in G1/S (log2)” value was -0.462. Besides, the melting temperature stood at 49.2 °C in the series on HeLa Kyoto [2] (cell cycle stage: G1/S) and 50.1 °C with HeLa Kyoto [2] (cell cycle stage: mitosis). Also, the “solubility change mitosis (log2)” value in the series with HeLa Kyoto [3] turned out to be 0.258. In addition, the thermal stability score in the series on HeLa Kyoto [4] (setting [5]) was 0.965; in the series on HeLa Kyoto [4] (cell cycle stage: mitosis) it was 3.42.

Turning to “MEVMNLMEQPIKVTEWQQTYTYDSGIHSGANTCVPSVSSKGIMEEDEACGRQYTLKKTTTYTQGVPPSQGDLEYQMSTTARAKRVREAMCPGVSGEDSSLLLATQVEGQATNLQRLAEPSQLLKSAIVHLINYQDDAELATRALPELTKLLNDEDPVVVTKAAMIVNQLSKKEASRRALMGSPQLVAAVVRTMQNTSDLDTARCTTSILHNLSHHREGLLAIFKSGGIPALVRMLSSPVESVLFYAITTLHNLLLYQEGAKMAVRLADGLQKMVPLLNKNNPKFLAITTDCLQLLAYGNQESKLIILANGGPQALVQIMRNYSYEKLLWTTSRVLKVLSVCPSNKPAIVEAGGMQALGKHLTSNSPRLVQNCLWTLRNLSDVATKQEGLESVLKILVNQLSVDDVNVLTCATGTLSNLTCNNSKNKTLVTQNSGVEALIHAILRAGDKDDITEPAVCALRHLTSRHPEAEMAQNSVRLNYGIPAIVKLLNQPNQWPLVKATIGLIRNLALCPANHAPLQEAAVIPRLVQLLVKAHQDAQRHVAAGTQQPYTDGVRMEEIVEGCTGALHILARDPMNRMEIFRLNTIPLFVQLLYSSVENIQRVAAGVLCELAQDKEAADAIDAEGASAPLMELLHSRNEGTATYAAAVLFRISEDKNPDYRKRVSVELTNSLFKHDPAAWEAAQSMIPINEPYGDDMDATYRPMYSSDVPLDPLEMHMDMDGDYPIDTYSDGLRPPYPTADHMLA [JUP]”, the “solubility in G1/S (log2)” value in the series on HeLa Kyoto [1] was -0.169. Further, the melting temperature with HeLa Kyoto [2] (cell cycle stage: G1/S) worked out at 53.5 °C; in the series with HeLa Kyoto [2] (cell cycle stage: mitosis), 52.8 °C. Further, the “solubility change mitosis (log2)” value with HeLa Kyoto [3] was -0.103. The results for the thermal stability score with HeLa Kyoto [4] (setting [5]) and in the series with HeLa Kyoto [4] (cell cycle stage: mitosis) were -2.2 and -2.86, respectively.
